Laboratory results published in PMC2756588.

T1: Lsb1, P53281
T1 sequence (P53281 45-122, looked up): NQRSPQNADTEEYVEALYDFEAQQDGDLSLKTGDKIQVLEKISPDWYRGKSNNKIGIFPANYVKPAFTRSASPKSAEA

T2: Bzz1-2, P38822
T2 sequence (P38822 568-633, looked up): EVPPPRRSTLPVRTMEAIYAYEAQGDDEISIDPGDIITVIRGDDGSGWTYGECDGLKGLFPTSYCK

T3: Cdc25, P04821
T3 sequence (P04821 50-136, looked up): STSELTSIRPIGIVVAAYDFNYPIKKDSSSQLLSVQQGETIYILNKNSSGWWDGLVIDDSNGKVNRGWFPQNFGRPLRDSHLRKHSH

T4: Sla1-2, P32790
T4 sequence (P32790 60-140, looked up): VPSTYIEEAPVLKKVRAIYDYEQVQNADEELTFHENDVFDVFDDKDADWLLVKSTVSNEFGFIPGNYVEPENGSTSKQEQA

T5: Boi2, P39969
T5 sequence (P39969 32-116, looked up): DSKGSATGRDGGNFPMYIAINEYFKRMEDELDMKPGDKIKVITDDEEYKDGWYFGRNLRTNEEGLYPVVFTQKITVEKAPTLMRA

T6: Abp1, P15891
T6 sequence (P15891 535-592, looked up): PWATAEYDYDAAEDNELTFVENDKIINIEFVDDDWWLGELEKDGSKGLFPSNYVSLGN

T7: Bzz1-1, P38822
T7 sequence (P38822 478-572, looked up): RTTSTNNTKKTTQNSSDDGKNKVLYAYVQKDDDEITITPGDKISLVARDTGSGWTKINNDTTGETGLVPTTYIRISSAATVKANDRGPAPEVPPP

T8: Boi1, P38041
T8 sequence (P38041 1-86, looked up): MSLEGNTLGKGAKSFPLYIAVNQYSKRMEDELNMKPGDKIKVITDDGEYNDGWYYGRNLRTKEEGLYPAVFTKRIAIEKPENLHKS

T9: Pin3, Q06449
T9 sequence (Q06449 53-122, looked up): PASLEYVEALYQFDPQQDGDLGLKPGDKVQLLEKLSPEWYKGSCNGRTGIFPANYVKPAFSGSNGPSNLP

T10: Lsb3, P43603
T10 sequence (P43603 385-451, looked up): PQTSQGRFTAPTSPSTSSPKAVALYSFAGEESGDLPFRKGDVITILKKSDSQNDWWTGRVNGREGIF

T11: Hof1, Q05080
T11 sequence (Q05080 590-669, looked up): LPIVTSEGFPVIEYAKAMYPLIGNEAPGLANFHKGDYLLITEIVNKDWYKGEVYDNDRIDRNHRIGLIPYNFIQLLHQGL

T12: Pex13, P80667
T12 sequence (P80667 295-386, looked up): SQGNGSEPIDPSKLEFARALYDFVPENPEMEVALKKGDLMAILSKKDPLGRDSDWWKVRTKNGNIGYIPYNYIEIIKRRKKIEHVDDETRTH

T13: Nbp2, Q12163
T13 sequence (Q12163 103-180, looked up): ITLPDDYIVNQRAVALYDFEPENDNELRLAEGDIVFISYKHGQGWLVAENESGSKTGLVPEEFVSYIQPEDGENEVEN

T14: Hse1, P38753
T14 sequence (P38753 208-285, looked up): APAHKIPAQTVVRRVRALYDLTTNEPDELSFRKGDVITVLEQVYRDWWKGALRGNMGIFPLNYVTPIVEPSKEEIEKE

T15: Bbc1, P47068
T15 sequence (P47068 1-78, looked up): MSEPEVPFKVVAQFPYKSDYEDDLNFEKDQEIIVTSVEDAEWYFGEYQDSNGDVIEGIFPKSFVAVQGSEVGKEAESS

T16: Sla1-3, P32790
T16 sequence (P32790 344-424, looked up): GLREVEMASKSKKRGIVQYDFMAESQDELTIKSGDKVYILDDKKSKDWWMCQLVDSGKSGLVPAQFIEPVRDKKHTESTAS

T17: Lsb4, P32793
T17 sequence (P32793 402-468, looked up): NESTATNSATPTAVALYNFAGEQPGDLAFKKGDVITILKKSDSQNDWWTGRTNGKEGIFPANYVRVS

T18: Myo5, Q04439
T18 sequence (Q04439 1072-1160, looked up): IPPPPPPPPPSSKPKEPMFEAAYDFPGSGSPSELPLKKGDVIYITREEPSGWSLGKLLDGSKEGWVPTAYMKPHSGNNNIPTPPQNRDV

T19: Bud14, P27637
T19 sequence (P27637 247-328, looked up): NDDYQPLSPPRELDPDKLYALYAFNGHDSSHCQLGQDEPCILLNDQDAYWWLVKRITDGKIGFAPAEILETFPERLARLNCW

T20: Cyk3, Q07533
T20 sequence (Q07533 1-83, looked up): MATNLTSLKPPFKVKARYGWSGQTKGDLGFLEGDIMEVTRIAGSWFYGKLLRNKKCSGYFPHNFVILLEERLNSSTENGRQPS

T21: Fus1, P11710
T21 sequence (P11710 432-512, looked up): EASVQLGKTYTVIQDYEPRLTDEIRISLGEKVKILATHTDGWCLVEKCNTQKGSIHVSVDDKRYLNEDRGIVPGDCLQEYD


Target: T1, Lsb1, P53281
Test: SPOT array
Details: median of control spots 388

Row | SPOT intensity | Binder
1 | 0 | SPLGAPPPPPHKDHL
2 | 0 | GDHPKGPPPPPPPPD
3 | 71 | IFLRISINFPLNYPN

Target: T2, Bzz1-2, P38822
Test: SPOT array
Details: median of control spots 4538

Row | SPOT intensity | Binder
4 | 0 | SPLGAPPPPPHKDHL
5 | 0 | GDHPKGPPPPPPPPD
6 | 70 | IFLRISINFPLNYPN

Target: GST
Test: SPOT array
Details: median of control spots 978

Row | SPOT intensity | Binder
7 | 1 | SPLGAPPPPPHKDHL
8 | 0 | GDHPKGPPPPPPPPD
9 | 0 | IFLRISINFPLNYPN

Target: T3, Cdc25, P04821
Test: SPOT array
Details: median of control spots 969

Row | SPOT intensity | Binder
10 | 0 | SPLGAPPPPPHKDHL
11 | 0 | GDHPKGPPPPPPPPD
12 | 91 | IFLRISINFPLNYPN

Target: Sho1, P40073
Test: SPOT array
Details: median of control spots 1148

Sho1, P40073, sequence (P40073 287-367): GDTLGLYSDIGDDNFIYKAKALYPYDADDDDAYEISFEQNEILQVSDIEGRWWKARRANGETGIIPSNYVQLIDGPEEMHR

Row | SPOT intensity | Binder
13 | 1 | SPLGAPPPPPHKDHL
14 | 0 | GDHPKGPPPPPPPPD
15 | 134 | IFLRISINFPLNYPN

Target: T4, Sla1-2, P32790
Test: SPOT array
Details: median of control spots 712

Row | SPOT intensity | Binder
16 | 0 | SPLGAPPPPPHKDHL
17 | 0 | GDHPKGPPPPPPPPD
18 | 12 | IFLRISINFPLNYPN

Target: T5, Boi2, P39969
Test: SPOT array
Details: median of control spots 1161

Row | SPOT intensity | Binder
19 | 0 | SPLGAPPPPPHKDHL
20 | 0 | GDHPKGPPPPPPPPD
21 | 3 | IFLRISINFPLNYPN

Target: T6, Abp1, P15891
Test: SPOT array
Details: median of control spots 935

Row | SPOT intensity | Binder
22 | 0 | SPLGAPPPPPHKDHL
23 | 0 | GDHPKGPPPPPPPPD
24 | 212 | IFLRISINFPLNYPN

Target: T7, Bzz1-1, P38822
Test: SPOT array
Details: median of control spots 4446

Row | SPOT intensity | Binder
25 | 0 | SPLGAPPPPPHKDHL
26 | 331 | GDHPKGPPPPPPPPD
27 | 6 | IFLRISINFPLNYPN

Target: Bem1-2, P29366
Test: SPOT array
Details: median of control spots 4347

Bem1-2, P29366, sequence (P29366 139-227): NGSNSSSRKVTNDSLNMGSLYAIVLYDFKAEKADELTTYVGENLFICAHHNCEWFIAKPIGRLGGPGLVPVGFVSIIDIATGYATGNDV

Row | SPOT intensity | Binder
28 | 0 | SPLGAPPPPPHKDHL
29 | 0 | GDHPKGPPPPPPPPD
30 | 3 | IFLRISINFPLNYPN

Target: T8, Boi1, P38041
Test: SPOT array
Details: median of control spots 1162

Row | SPOT intensity | Binder
31 | 1 | SPLGAPPPPPHKDHL
32 | 0 | GDHPKGPPPPPPPPD
33 | 24 | IFLRISINFPLNYPN

Target: T9, Pin3, Q06449
Test: SPOT array
Details: median of control spots 2171

Row | SPOT intensity | Binder
34 | 0 | SPLGAPPPPPHKDHL
35 | 0 | GDHPKGPPPPPPPPD
36 | 101 | IFLRISINFPLNYPN

Target: T10, Lsb3, P43603
Test: SPOT array
Details: median of control spots 406

Row | SPOT intensity | Binder
37 | 0 | SPLGAPPPPPHKDHL
38 | 0 | GDHPKGPPPPPPPPD
39 | 10 | IFLRISINFPLNYPN

Target: T11, Hof1, Q05080
Test: SPOT array
Details: median of control spots 4086

Row | SPOT intensity | Binder
40 | 0 | SPLGAPPPPPHKDHL
41 | 0 | GDHPKGPPPPPPPPD
42 | 15 | IFLRISINFPLNYPN

Target: T12, Pex13, P80667
Test: SPOT array
Details: median of control spots 1341

Row | SPOT intensity | Binder
43 | 0 | SPLGAPPPPPHKDHL
44 | 0 | GDHPKGPPPPPPPPD
45 | 76 | IFLRISINFPLNYPN

Target: T13, Nbp2, Q12163
Test: SPOT array
Details: median of control spots 357

Row | SPOT intensity | Binder
46 | 0 | SPLGAPPPPPHKDHL
47 | 1 | GDHPKGPPPPPPPPD
48 | 74 | IFLRISINFPLNYPN

Target: T14, Hse1, P38753
Test: SPOT array
Details: median of control spots 1727

Row | SPOT intensity | Binder
49 | 0 | SPLGAPPPPPHKDHL
50 | 0 | GDHPKGPPPPPPPPD
51 | 143 | IFLRISINFPLNYPN

Target: T15, Bbc1, P47068
Test: SPOT array
Details: median of control spots 796

Row | SPOT intensity | Binder
52 | 0 | SPLGAPPPPPHKDHL
53 | 0 | GDHPKGPPPPPPPPD
54 | 192 | IFLRISINFPLNYPN

Target: T16, Sla1-3, P32790
Test: SPOT array
Details: median of control spots 5475

Row | SPOT intensity | Binder
55 | 0 | SPLGAPPPPPHKDHL
56 | 0 | GDHPKGPPPPPPPPD
57 | 199 | IFLRISINFPLNYPN

Target: T17, Lsb4, P32793
Test: SPOT array
Details: median of control spots 397

Row | SPOT intensity | Binder
58 | 0 | SPLGAPPPPPHKDHL
59 | 0 | GDHPKGPPPPPPPPD
60 | 14 | IFLRISINFPLNYPN

Target: Bem1-1, P29366
Test: SPOT array
Details: median of control spots 4282

Bem1-1, P29366, sequence (P29366 55-141): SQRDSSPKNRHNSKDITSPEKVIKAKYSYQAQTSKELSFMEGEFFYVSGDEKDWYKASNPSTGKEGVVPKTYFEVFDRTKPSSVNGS

Row | SPOT intensity | Binder
61 | 0 | SPLGAPPPPPHKDHL
62 | 0 | GDHPKGPPPPPPPPD
63 | 8 | IFLRISINFPLNYPN

Target: T18, Myo5, Q04439
Test: SPOT array
Details: median of control spots 471

Row | SPOT intensity | Binder
64 | 81 | SPLGAPPPPPHKDHL
65 | 262 | GDHPKGPPPPPPPPD
66 | 15 | IFLRISINFPLNYPN

Target: Rvs167, P39743
Test: SPOT array
Details: median of control spots 2707

Rvs167, P39743, sequence (P39743 419-482): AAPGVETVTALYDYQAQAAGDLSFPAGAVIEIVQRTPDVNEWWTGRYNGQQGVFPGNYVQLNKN

Row | SPOT intensity | Binder
67 | 2 | SPLGAPPPPPHKDHL
68 | 0 | GDHPKGPPPPPPPPD
69 | 1 | IFLRISINFPLNYPN

Target: Myo3, P36006
Test: SPOT array
Details: median of control spots 468

Row | SPOT intensity | Binder
70 | 327 | SPLGAPPPPPHKDHL
71 | 456 | GDHPKGPPPPPPPPD
72 | 71 | IFLRISINFPLNYPN

Target: T19, Bud14, P27637
Test: SPOT array
Details: median of control spots 956

Row | SPOT intensity | Binder
73 | 0 | SPLGAPPPPPHKDHL
74 | 1 | GDHPKGPPPPPPPPD
75 | 18 | IFLRISINFPLNYPN

Target: T20, Cyk3, Q07533
Test: SPOT array
Details: median of control spots 1451

Row | SPOT intensity | Binder
76 | 0 | SPLGAPPPPPHKDHL
77 | 0 | GDHPKGPPPPPPPPD
78 | 5 | IFLRISINFPLNYPN

Target: T21, Fus1, P11710
Test: SPOT array
Details: median of control spots 1200

Row | SPOT intensity | Binder
79 | 0 | SPLGAPPPPPHKDHL
80 | 0 | GDHPKGPPPPPPPPD
81 | 655 | IFLRISINFPLNYPN
